Experiments:
Format in all cases: cell-based, human
[1] = tested on: wild-type and variant SNAP-GIPR; assay: cADDis cAMP imaging in AD293 cells, ensemble, expression-matched and per decile; settings: Fig S3F, cADDis, mean;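 note: Ensemble cells as % of IBMX/FSK response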
Outline: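 AD293 cells reverse-transfected with wild-type or variant SNAP-GIPR plus cADDis Green Up sensor, variants run in parallel. After 24 h, surface receptor labelled with SNAP-Surface Alexa Fluor 647 (500 nM); single-cell cADDis fluorescence imaged at 37 °C in KRBH, 6 mM glucose, 0.1% BSA. Responses given ensemble, expression-matched by wild-type deciles, or per own decile.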

[2] = tested on: wild-type and variant SNAP-GIPR; assay: Constitutive and agonist-mediated internalization, reversible SNAP-tag labelling, AD293 cells; design: key to Internalisation, Vehicle / Internalisation, +GIP / Internalisation, GIP-only: % internalization: residual fluorescence after Mesna vs pre-Mesna; Surface expression: unit not given here; settings: Mean; for +GIP internalisation (100 nM) / GIP-specific internalisation (100 nM) / Constitutive internalisation (100 nM) / Surface expression: Fig 4E; for +GIP internalisation (100 nM) / GIP-specific internalisation (100 nM): GIP 100 nM; for Internalisation, +GIP / Internalisation, GIP-only / Internalisation, Vehicle: Fig S4C, AD293
Outline: (§1)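 Percentage internalization is read as the fraction of specific SNAP fluorescence that survives Mesna stripping, compared with the image taken before Mesna. Wells are imaged in TNE buffer at pH 8.6 and again after 10 min.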

[3] = tested on: wild-type and variant SNAP-GIPR; assay: Single-concentration GIP cAMP response by HTRF in INS-1 cells; settings: Fig S3E, mean
Description: (§2) All variants were tested in parallel on each occasion to control for transfection efficiency differences between experiments.

[4] = tested on: wild-type and variant SNAP-GIPR; assay: Surface SNAP-GIPR expression (SNAP-tag labelling) in AD293 cells; settings: for AD293 Surface: Fig S3E, mean; for Surface SNAP-GIPR expression: sheet Fig 1C;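 for all read-outs here: scaled to the experimental average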
Outline: (§3)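 Read-out: whole-cell fluorescence of surface-only SNAP label (Alexa Fluor 647, 500 nM, 10 min, RT), wide-field 20X, several FOVs per well. Flat-field corrected, phase-contrast masked, nontransfected-well signal subtracted; normalized to experiment mean or wild-type.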

[5] = tested on: wild-type and variant SNAP-GIPR; assay: Single-concentration GIP cAMP response by HTRF in AD293 cells; settings: Fig S3F, HTRF, mean;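 note: ratio to experiment-wide average response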
Description: as §2

[6] = tested on: wild-type and variant SNAP-GIPR; assay: Constitutive and agonist-mediated internalization, reversible SNAP-tag labelling, INS-1 cells; design: key to Internalisation, GIP-only / Internalisation, Vehicle / Internalisation, +GIP: % internalization: residual fluorescence after Mesna vs pre-Mesna; settings: Mean; for +GIP internalisation (100 nM) / GIP-specific internalisation (100 nM) / Constitutive internalisation (100 nM): Fig 4G; for +GIP internalisation (100 nM) / GIP-specific internalisation (100 nM): GIP 100 nM; for Internalisation, +GIP / Internalisation, GIP-only / Internalisation, Vehicle: Fig S4C, INS-1
Outline: as §1

[7] = tested on: wild-type and variant SNAP-GIPR; assay: Surface SNAP-GIPR expression (SNAP-tag labelling) in INS-1 cells; settings: Fig 4G; Mean
Outline: as §3

[8] = column repeated, paired with cAMP 100 nM

B1: S447T (protein, UniProt P48546 22-466, looked up, variant S447T)
Gastric inhibitory …: RAETGSKGQTAGELYQRWERYRRECQETLAAAEPPSGLACNGSFDMYVCWDYAAPNATARASCPWYLPWHHHVAAGFVLRQCGSDGQWGLWRDHTQCENPEKNEAFLDQRLILERLQVMYTVGYSLSLATLLLALLILSLFRRLHCTRNYIHINLFTSFMLRAAAILSRDRLLPRPGPYLGDQALALWNQALAACRTAQIVTQYCVGANYTWLLVEGVYLHSLLVLVGGSEEGHFRYYLLLGWGAPALFVIPWVIVRYLYENTQCWERNEVKAIWWIIRTPILMTILINFLIFIRILGILLSKLRTRQMRCRDYRLRLARSTLTLVPLLGVHEVVFAPVTEEQARGALRFAKLGFEIFLSSFQGFLVSVLYCFINKEVQSEIRRGWHHCRLRRSLGEEQRQLPERAFRALPSGSGPGEVPTSRGLTSGTLPGPGNEASRELESYC
AD293 100 pM cADDis [1]: 33.2503 | AD293 100 nM cADDis [1]: 38.05 | +GIP internalisation (100 nM) [2]: 0.6943 | GIP-specific internalisation (100 nM) [2]: 0.1731 | Constitutive internalisation (100 nM) [2]: 0.5211 | Surface expression [2]: 1.271 | Internalisation, +GIP [2]: 54.6308 | Internalisation, GIP-only [2]: 13.6704 | Internalisation, Vehicle [2]: 40.9604 | INS-1 cAMP (100 nM) [3]: 1.225 | AD293 Surface [4, 8]: 1.404 | AD293 Surface ([4]; paired with cAMP 100 pM): 1.404 | Surface SNAP-GIPR expression ([4]; replicate 1): 1.604 | Surface SNAP-GIPR expression ([4]; replicate 2): 1.279 | Surface SNAP-GIPR expression ([4]; replicate 3): 1.391 | Surface SNAP-GIPR expression ([4]; replicate 4): 2.61 | Surface SNAP-GIPR expression ([4]; replicate 5): 1.403 | Surface SNAP-GIPR expression ([4]; replicate 6): 1.423 | Surface SNAP-GIPR expression ([4]; replicate 7): 1.077 | Surface SNAP-GIPR expression ([4]; replicate 8): 1.469 | Surface SNAP-GIPR expression ([4]; replicate 9): 1.63 | Surface SNAP-GIPR expression ([4]; replicate 10): 1.374 | Surface SNAP-GIPR expression ([4]; replicate 11): 1.745 | Surface SNAP-GIPR expression ([4]; replicate 12): 1.689 | Surface SNAP-GIPR expression ([4]; replicate 13): 1.462 | Surface SNAP-GIPR expression ([4]; replicate 14): 1.46 | Surface SNAP-GIPR expression ([4]; replicate 15): 1.674 | Surface SNAP-GIPR expression ([4]; replicate 16): 1.628 | Surface SNAP-GIPR expression ([4]; replicate 17): 1.349 | Surface SNAP-GIPR expression ([4]; replicate 18): 1.205 | Surface SNAP-GIPR expression ([4]; replicate 19): 1.299 | Surface SNAP-GIPR expression ([4]; replicate 20): 1.361 | Surface SNAP-GIPR expression ([4]; replicate 21): 1.342 | Surface SNAP-GIPR expression ([4]; replicate 22): 1.393 | Surface SNAP-GIPR expression ([4]; replicate 23): 1.314 | Surface SNAP-GIPR expression ([4]; replicate 24): 1.27 | Surface SNAP-GIPR expression ([4]; replicate 25): 1.747 | Surface SNAP-GIPR expression ([4]; replicate 26): 1.476 | Surface SNAP-GIPR expression ([4]; replicate 27): 1.434 | Surface SNAP-GIPR expression ([4]; replicate 28): 1.161 | Surface SNAP-GIPR expression ([4]; replicate 29): 0.9451 | Surface SNAP-GIPR expression ([4]; replicate 30): 1.119 | Surface SNAP-GIPR expression ([4]; replicate 31): 1.316 | Surface SNAP-GIPR expression ([4]; replicate 32): 1.418 | Surface SNAP-GIPR expression ([4]; replicate 33): 1.322 | Surface SNAP-GIPR expression ([4]; replicate 34): 1.362 | Surface SNAP-GIPR expression ([4]; replicate 35): 1.415 | Surface SNAP-GIPR expression ([4]; replicate 36): 1.515 | Surface SNAP-GIPR expression ([4]; replicate 37): 1.174 | Surface SNAP-GIPR expression ([4]; replicate 38): 1.292 | Surface SNAP-GIPR expression ([4]; replicate 39): 1.035 | Surface SNAP-GIPR expression ([4]; replicate 40): 1.181 | Surface SNAP-GIPR expression ([4]; replicate 41): 1.207 | AD293 100 pM HTRF [5]: 1.563 | AD293 100 nM HTRF [5]: 1.418 | +GIP internalisation (100 nM) [6]: 0.5789 | GIP-specific internalisation (100 nM) [6]: 0.1373 | Constitutive internalisation (100 nM) [6]: 0.4416 | Internalisation, +GIP [6]: 49.3117 | Internalisation, GIP-only [6]: 11.6867 | Internalisation, Vehicle [6]: 37.625 | Surface expression [7]: 1.143

B2: E252D (protein)
chain: RAETGSKGQTAGELYQRWERYRRECQETLAAAEPPSGLACNGSFDMYVCWDYAAPNATARASCPWYLPWHHHVAAGFVLRQCGSDGQWGLWRDHTQCENPEKNEAFLDQRLILERLQVMYTVGYSLSLATLLLALLILSLFRRLHCTRNYIHINLFTSFMLRAAAILSRDRLLPRPGPYLGDQALALWNQALAACRTAQIVTQYCVGANYTWLLVEGVYLHSLLVLVGGSDEGHFRYYLLLGWGAPALFVIPWVIVRYLYENTQCWERNEVKAIWWIIRTPILMTILINFLIFIRILGILLSKLRTRQMRCRDYRLRLARSTLTLVPLLGVHEVVFAPVTEEQARGALRFAKLGFEIFLSSFQGFLVSVLYCFINKEVQSEIRRGWHHCRLRRSLGEEQRQLPERAFRALPSGSGPGEVPTSRGLSSGTLPGPGNEASRELESYC
AD293 100 pM cADDis [1]: 35.9603 | AD293 100 nM cADDis [1]: 38.59 | +GIP internalisation (100 nM) [2]: 0.7833 | GIP-specific internalisation (100 nM) [2]: 0.2173 | Constitutive internalisation (100 nM) [2]: 0.566 | Surface expression [2]: 1.422 | Internalisation, +GIP [2]: 55.2271 | Internalisation, GIP-only [2]: 15.2317 | Internalisation, Vehicle [2]: 39.9954 | INS-1 cAMP (100 nM) [3]: 1.435 | AD293 Surface [4, 8]: 1.407 | AD293 Surface ([4]; paired with cAMP 100 pM): 1.407 | Surface SNAP-GIPR expression ([4]; replicate 1): 1.329 | Surface SNAP-GIPR expression ([4]; replicate 2): 1.136 | Surface SNAP-GIPR expression ([4]; replicate 3): 2.323 | Surface SNAP-GIPR expression ([4]; replicate 4): 1.309 | Surface SNAP-GIPR expression ([4]; replicate 5): 1.389 | Surface SNAP-GIPR expression ([4]; replicate 6): 1.509 | Surface SNAP-GIPR expression ([4]; replicate 7): 1.009 | Surface SNAP-GIPR expression ([4]; replicate 8): 1.58 | Surface SNAP-GIPR expression ([4]; replicate 9): 1.305 | Surface SNAP-GIPR expression ([4]; replicate 10): 1.452 | Surface SNAP-GIPR expression ([4]; replicate 11): 1.297 | Surface SNAP-GIPR expression ([4]; replicate 12): 1.294 | Surface SNAP-GIPR expression ([4]; replicate 13): 1.499 | Surface SNAP-GIPR expression ([4]; replicate 14): 1.714 | Surface SNAP-GIPR expression ([4]; replicate 15): 1.276 | Surface SNAP-GIPR expression ([4]; replicate 16): 1.31 | Surface SNAP-GIPR expression ([4]; replicate 17): 1.201 | Surface SNAP-GIPR expression ([4]; replicate 18): 1.327 | Surface SNAP-GIPR expression ([4]; replicate 19): 1.07 | Surface SNAP-GIPR expression ([4]; replicate 20): 1.361 | Surface SNAP-GIPR expression ([4]; replicate 21): 1.327 | Surface SNAP-GIPR expression ([4]; replicate 22): 1.295 | Surface SNAP-GIPR expression ([4]; replicate 23): 1.346 | Surface SNAP-GIPR expression ([4]; replicate 24): 1.279 | Surface SNAP-GIPR expression ([4]; replicate 25): 1.414 | Surface SNAP-GIPR expression ([4]; replicate 26): 1.49 | Surface SNAP-GIPR expression ([4]; replicate 27): 1.461 | Surface SNAP-GIPR expression ([4]; replicate 28): 1.564 | Surface SNAP-GIPR expression ([4]; replicate 29): 1.396 | Surface SNAP-GIPR expression ([4]; replicate 30): 1.388 | Surface SNAP-GIPR expression ([4]; replicate 31): 2.074 | Surface SNAP-GIPR expression ([4]; replicate 32): 1.301 | Surface SNAP-GIPR expression ([4]; replicate 33): 1.332 | Surface SNAP-GIPR expression ([4]; replicate 34): 1.623 | Surface SNAP-GIPR expression ([4]; replicate 35): 1.576 | Surface SNAP-GIPR expression ([4]; replicate 36): 1.688 | Surface SNAP-GIPR expression ([4]; replicate 37): 1.181 | Surface SNAP-GIPR expression ([4]; replicate 38): 1.286 | Surface SNAP-GIPR expression ([4]; replicate 39): 1.291 | Surface SNAP-GIPR expression ([4]; replicate 40): 1.349 | Surface SNAP-GIPR expression ([4]; replicate 41): 1.333 | AD293 100 pM HTRF [5]: 2.258 | AD293 100 nM HTRF [5]: 1.787 | +GIP internalisation (100 nM) [6]: 0.6632 | GIP-specific internalisation (100 nM) [6]: 0.1797 | Constitutive internalisation (100 nM) [6]: 0.4835 | Internalisation, +GIP [6]: 49.4067 | Internalisation, GIP-only [6]: 13.4967 | Internalisation, Vehicle [6]: 35.91 | Surface expression [7]: 1.379

Reference: PMC13544220, “Glycemic and bodyweight effects of GIPR coding variation reflect differences in surface expression and intrinsic functional impairment” (Science Advances, 2026)
